From PMC4142084 (Molecular cell, 2014)

Molecular target: the molecule itself
Experiment: cross-linking

Protein	stoichiometry N
purified recombinant FLAG-6PGD (6-phosphogluconate dehydrogenase) WT (enzyme, human, background lysine acetylation; acetylation at K76 and K294 increased after incubation with lysates of NAM+TSA-treated H1299 cells) MAQADIALIGLAVMGQNLILNMNDHGFVVCAFNRTVSKVDDFLANEAKGTKVVGAQSLKEMVSKLKKPRRIILLVKAGQAVDDFIEKLVPLLDTGDIIIDGGNSEYRDTTRRCRDLKAKGILFVGSGVSGGEEGARYGPSLMPGGNKEAWPHIKTIFQGIAAKVGTGEPCCDWVGDEGAGHFVKMVHNGIEYGDMQLICEAYHLMKDVLGMAQDEMAQAFEDWNKTELDSFLIEITANILKFQDTDGKHLLPKIRDSAGQKGTGKWTAISALEYGVPVTLIGEAVFARCLSSLKDERIQASKKLKGPQKFQFDGDKKSFLEDIRKALYASKIISYAQGFMLLRQAATEFGWTLNYGGIALMWRGGCIIRSVFLGKIKDAFDRNPELQNLLLDDFFKSAVENCQDSWRRAVSTGVQAGIPMPCFTTALSFYDGYRHEMLPASLIQAQRDYFGAHTYELLAKPGQFIHTNWTGHGGTVSSSSYNA	2
purified recombinant FLAG-6PGD K76R (enzyme, human, acetylation at K294 increased after incubation with lysates of NAM+TSA-treated H1299 cells) MAQADIALIGLAVMGQNLILNMNDHGFVVCAFNRTVSKVDDFLANEAKGTKVVGAQSLKEMVSKLKKPRRIILLVRAGQAVDDFIEKLVPLLDTGDIIIDGGNSEYRDTTRRCRDLKAKGILFVGSGVSGGEEGARYGPSLMPGGNKEAWPHIKTIFQGIAAKVGTGEPCCDWVGDEGAGHFVKMVHNGIEYGDMQLICEAYHLMKDVLGMAQDEMAQAFEDWNKTELDSFLIEITANILKFQDTDGKHLLPKIRDSAGQKGTGKWTAISALEYGVPVTLIGEAVFARCLSSLKDERIQASKKLKGPQKFQFDGDKKSFLEDIRKALYASKIISYAQGFMLLRQAATEFGWTLNYGGIALMWRGGCIIRSVFLGKIKDAFDRNPELQNLLLDDFFKSAVENCQDSWRRAVSTGVQAGIPMPCFTTALSFYDGYRHEMLPASLIQAQRDYFGAHTYELLAKPGQFIHTNWTGHGGTVSSSSYNA	2
